Test results published in the RNAGym collection of RNA variant scans (doi:10.7554/elife.90254).

B1: LINE1-full (parent)
chain: UACGUAGGUGGUUUUCCCCUGAUAGUGCUAAGGGGGCCUGGAAGUUUGGACUGGGCAGAGCUCAACACAGCGUGGCAAAGUGGCUGUGGCUAGACUGCCUCUCUGGAUUCCUCGUCACUCAGCAGGGCAUCUCUGAGAGAAAUGCC

Variants of: B1
Assay: self-cleavage, relative activity (ratio to wild type); higher = more cleavage; in vitro, sequencing; the parent is a self-cleaving ribozyme

Row | Variant | self-cleavage
1 | U1C A65U | 0.06
2 | U1C A65G | 0.07
3 | U1A U143A | 1.04
4 | C3U U47A | 0.67
5 | U1C U20A | 0.88
6 | G4A A136G | 0.86
7 | A2U U109C | 1.74
8 | C3U A43G | 0.95
9 | A2U C76U | 1.07
10 | A2G U73A | 0.95
11 | A2G U109A | 0.65
12 | U1C U143C | 1.18
13 | A2C G93A | 0.03
14 | U1A U130C | 1.46
15 | U1C U81G | 1.01
16 | U1C U81C | 0.85
17 | U1G A42U | 0.28
18 | C3U G93A | 0
19 | A2C A65G | 0.12
20 | A2G C19A | 1.24
21 | A2G A124U | 0.88
22 | A2G A124G | 0.74
23 | C3U U46C | 0.92
24 | C3U G7C | 0

Row | Variant | self-cleavage
25 | A2U A42U | 0.47
26 | U1C A30G | 0.73
27 | A2G A64G | 0.39
28 | A2G A64U | 0.88
29 | A2G A64C | 0.59
30 | C3A U13A | 0.79
31 | G4A A65G | 0
32 | U1C G36C | 1.26
33 | A2G U5C | 1.41
34 | A2G G44U | 0.87
35 | C3U A50U | 0.58
36 | U1C U115C | 1.19
37 | G4A A94U | 0.27
38 | A2C U102C | 1.65
39 | C3U C111U | 0.65
40 | A2U A107U | 0.52
41 | A2U A107G | 1
42 | U1C G4U | 0.78
43 | U1C C56U | 0.07
44 | A2C G89A | 0.05
45 | U1C G25A | 0.72
46 | U1G A30G | 0.61
47 | G4A A121C | 1.72
48 | G4A A121U | 1.22

Row | Variant | self-cleavage
49 | U1C C103U | 0.29
50 | C3U A78G | 0.37
51 | A2G A22U | 0.19
52 | A2G A22G | 0.97
53 | C3U A67C | 0.12
54 | C3U A67U | 0.15
55 | A2G A50G | 0.39
56 | A2G A50U | 0.18
57 | U1C A107G | 0.75
58 | C3U C51G | 1.31
59 | U1C U102A | 0.25
60 | A2C U5C | 1.12
61 | A2C U130C | 1.19
62 | A2U A138U | 1.01
63 | U1G U52C | 2.63
64 | U1C U47C | 0.97
65 | U1C U47A | 0.6
66 | U1C U100C | 1.2
67 | U1C U14C | 0.93
68 | U1C U14A | 0.81
69 | A2G U29A | 1.14
70 | A2G U29G | 1.09
71 | G4A C98A | 0.19
72 | A2C U143A | 1.85

Row | Variant | self-cleavage
73 | A2G G4U | 0.4
74 | A2G U9C | 0.83
75 | A2G A117G | 0.3
76 | A2G A57U | 0.38
77 | A2U G122A | 0.79
78 | A2G C28U | 0.72
79 | U1C A57G | 0.56
80 | U1C C113A | 0.62
81 | U1C G10A | 0.95
82 | C3A A77G | 1.17
83 | C3U U81C | 0.79
84 | U1C G83A | 0.74
85 | U1C G125A | 1.34
86 | U1C C38A | 0.55
87 | U1C C38U | 0.71
88 | U1C A50G | 0.64
89 | C3G A30U | 0.91
90 | U1C C19U | 0.66
91 | C3U U87G | 0.32
92 | C3A U52G | 1.31
93 | A2U U15C | 1.19
94 | U1C A2G | 0.72
95 | C3U U29A | 1.07
96 | U1C U15C | 0.92

Row | Variant | self-cleavage
97 | A2G A142G | 0.93
98 | A2G A142U | 1.12
99 | A2G G106U | 1.04
100 | C3A G106A | 0.57
101 | C3U | 0.83
102 | C3G | 1.34
103 | C3A | 0.69
104 | A2G U112G | 0.77
105 | A2G U112A | 0.09
106 | C3U U85A | 0.28
107 | U1C G82A | 1.3
108 | U1C G7A | 0.7
109 | A2G A121G | 1.44
110 | A2U A67C | 0.12
111 | A2U A67U | 0.05
112 | U1C U112C | 2.17
113 | A2U U14C | 0.83
114 | A2G U20A | 0.37
115 | A2G U20C | 0.74
116 | A2G U26A | 0.84
117 | A2G U26C | 0.88
118 | A2U A129G | 0.72
119 | C3A U134C | 0.92
120 | A2C A50U | 0.75

Row | Variant | self-cleavage
121 | C3U U14C | 0.81
122 | C3U A6U | 0.2
123 | A2U U85A | 0.04
124 | A2G A65G | 0.2
125 | A2G A65U | 0.66
126 | U1C A24G | 1.15
127 | U1C A24C | 0.91
128 | A2U C113A | 0.63
129 | U1A U104C | 1.51
130 | U1A U104A | 1.2
131 | A2G U104C | 0.84
132 | C3U U96A | 0.07
133 | C3U U52G | 1.17
134 | C3U C16U | 0.76
135 | A2U A92U | 0.32
136 | U1C U109C | 0.42
137 | U1C U109A | 2.04
138 | U1G | 0.87
139 | U1C | 0.86
140 | G4A A79U | 0.64
141 | G4A A79G | 1.3
142 | C3U U5C | 1.16
143 | A2G A31G | 1
144 | U1C U108C | 0.67

Row | Variant | self-cleavage
145 | A2U A64G | 0.23
146 | A2G U62G | 0.37
147 | A2U U112C | 1.4
148 | U1C A79G | 0.86
149 | A2U A65U | 0.23
150 | A2C A142G | 1.78
151 | A2U U29C | 0.98
152 | C3U A107U | 1.17
153 | A2G U91C | 0.45
154 | A2U A79U | 1.37
155 | U1C U130A | 0.83
156 | C3G A57U | 0
157 | A2G U23C | 0.69
158 | U1C U29C | 1.1
159 | A2U A142G | 1.15
160 | U1C U12C | 0.78
161 | U1C U12G | 0.84
162 | U1C U85A | 0.03
163 | U1C U85G | 0.08
164 | G4A A141G | 0.89
165 | A2U U52A | 0.92
166 | A2G G89A | 0.11
167 | A2G U15C | 0.89
